Data reported in patent US20080095768A1 (PDL BIOPHARMA, published 2008).

Molecular target: T1, human CS1 (CD2-subset1) (human, UniProt Q9NQ25 23-335)
T1 construct: Endogenous CS1 on primary myeloma cells / CD138+ tissue plasma cells; also called SLAMF7; CRACC
Experiment: flow cytometry on primary myeloma cells and IHC on normal tissues, using HuLuc63 as the detecting antibody
Method: Gene expression was assessed using an Affymetrix GeneChip array. Protein expression was measured by flow cytometry, and immunohistochemistry (IHC), using HuLuc63, a novel humanized anti-CS1 mAb. HuLuc63-mediated lysis of myeloma cells via antibody dependent cellular cytotoxicity (ADCC) was measured by ⁵¹Cr-release.
CS1 mRNA was detected in CD138+ purified plasma cells from >95% of healthy donors, newly diagnosed myeloma patients, and those with relapsed myeloma (FIG. 1). […] Finally, we determined that HuLuc63 could induce killing of myeloma cells using purified allogeneic NK cells (FIG. 2). […] Our data support the potential clinical utility of CS1-targeted therapy.

- binding result: binds
B1: HuLuc63 (antibody, IgG1, V domains shown)
VH: EVQLVESGGGLVQPGGSLRLSCAASGFDFSRYWMSWVRQAPGKGLEWIGEINPDSSTINYAPSLKDKFIISRDNAKNSLYLQMNSLRAEDTAVYYCARPDGNYWYFDVWGQGTLVTVSS
VL: DIQMTQSPSSLSASVGDRVTITCKASQDVGIAVAWYQQKPGKVPKLLIYWASTRHTGVPDRFSGSGSGTDFTLTISSLQPEDVATYYCQQYSSYPYTFGQGTKVEIK
notes: Humanized recombinant monoclonal IgG1; also called HyLuc63; humanized anti-CS1 mAb
